For test [1], the target named is T1, mouse big-ET-1 (SEQ ID NO:437) (Mus musculus, UniProt P22387).
T1 sequence (P22387 53-91 limits assumed): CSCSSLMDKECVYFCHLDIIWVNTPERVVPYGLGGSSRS
The test can be described thus: Surface plasmon resonance (Biacore) binding, mAb capture format, 37° C. As to conditions: for ka / kd / Kd: analyte mouse big-ET-1, mAb capture; for Kd: KD=kd/ka. The method, then: (§1) Measurements were conducted on a T200 Biacore instrument (Biacore Life Sciences division of GE Healthcare, Piscataway, N.J.). […] Different concentrations of small-ET-1 (SEQ ID NO:435), human big-ET-1 (SEQ ID NO:434) or mouse big-ET-1 (SEQ ID NO:437) were injected over the anti-big-ET-1 captured surfaces at a flow rate of 100 μl/min. Peptide binding was monitored for 3 min while dissociation of mAb-bound peptide was monitored for 4 min in HBST running buffer (0.01 M HEPES pH 7.4, 0.15 M NaCl, 3 mM EDTA, 0.005% v/v Surfactant P20). Kinetic association (ka) and dissociation (kd) rate constants were determined by processing and fitting the data to a 1:1 binding model using Scrubber 2.0 curve fitting software.

The target in test [2] is T2, human big-ET-1 (SEQ ID NO:434) (Homo sapiens, UniProt P05305).
T2 sequence (P05305 53-90 limits assumed): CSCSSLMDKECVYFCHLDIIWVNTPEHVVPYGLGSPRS
Described as above. The settings on record: for ka / kd: analyte human big-ET-1, mAb capture. The method, then: as §1

The text below walks through data of patent publication US9751932B2, “Anti-big-endothelin-1 (big-ET-1) antibodies and uses thereof” (Regeneron Pharmaceuticals, Inc., priority 2012, dated 2017).

B1: H4H6329P: anti-big-ET-1 antibody, human IgG4 Fc; HCVR/LCVR SEQ ID NO: 194/202 (antibody, V domains shown)
VH: QVQLVESGGGVVQPGRSLRLSCAASGFTFGSYGMHWVRQAPGKGLEWVAVIWYDGSDEYYTDSVKGRFTVSRDNSKYTLYLQMNSLRADDTAVYYCARDGYRTRGNYFDYWGQGTLVTVSS
VL: DVVMTQSPLSLPVALGQPASISCRSSQSLVYSDGNTYLNWFQQRPGQSPRRLIYKVSNRDSGVPDRFGGSGSGTDFTLKISRVEAEDVGLYYCMQGTHWPPTFGGGTKVEIK
modifications: human IgG4 Fc
In test [1], B1 gave a ka of 11600 M/s and a kd of 0.000223 s⁻¹. In test [2], this molecule came in with a ka of 595000 M/s and a kd of 0.000176 s⁻¹.

B2: H1M6492N: anti-big-ET-1 hybridoma antibody, H1M Fc; HCVR/LCVR SEQ ID NO: 34/42 (antibody, V domains shown)
VH: EVQLVESGGGLVKPGGSLRVSCVASGFTFSNAWMTWVRQTPGKGLECVGRIKSRTDGGTVDYVAPVKGRFTISRDDSKNTLYLQMNSLKAEDTAVYYCRADLDYWGQGTLVTVSS
VL: DVVMTQSPLSLPVSLGQPASISCRSSQSLVHSDGITYLNWFQQRPGQSPRRLIYKISNRDSGVPDRFSGSGSGTDFTLKFSRVEAEDVGVYFCMQGTHWPYTFGQGTKLEIK
modifications: mouse Fc
For the molecule B2, in test [1], the “binding to mouse big-ET-1 (in words)” value is on record as “did not show any binding” and the equilibrium dissociation constant (Kd) is above 1 µM. Moreover, in test [2], the “binding to human big-ET-1 (in words)” value is recorded as “high affinity binding”, the ka turned out to be 248000 M/s and the kd was found to be 0.0016 s⁻¹.

B3: H1M6494N: anti-big-ET-1 hybridoma antibody, H1M Fc; HCVR/LCVR SEQ ID NO: 50/58 (antibody, V domains shown)
VH: EVQLVESGGGLVKPGGSLRVSCVASGFTFSNAWMTWVRQTPGKGLECVGRIKSRTDGGTVDYVAPVKGRFTISRDDSKNTLYLQMNSLKAEDTAVYYCRADLDYWGQGTLVTVSS
VL: DVVMTQSPLSLPVSLGQPASISCRSSQSLVHSDGITYLNWFQQRPGQSPRRLIYKISNRDSGVPDRFSGSGSGTDFTLKFSRVEAEDVGVYFCMQGTHWPYTFGQGTKLEIK
modifications: mouse Fc
Regarding B3, in test [1], the “binding to mouse big-ET-1 (in words)” value is “did not show any binding” and the Kd is above 1 µM. Also, in test [2], the “binding to human big-ET-1 (in words)” value was “high affinity binding”, the ka came out at 239000 M/s and the kd is 0.00169 s⁻¹.

B4: H4H6353P: anti-big-ET-1 antibody, human IgG4 Fc; HCVR/LCVR SEQ ID NO: 386/394 (antibody, V domains shown)
VH: EVQLVESGGGLVKPGGSLRLSCAASGFSFNYAWMSWVRQAPGKGLEWIGRIKSKINGGTTDYTAPVKGRFTISRDDSKNTLYLQMNSLKTEDTAVYYCRGDEDFWGQGTLVTVSS
VL: DVVMTQSPLSLPVTLGQPASISCRSSQSLVYSDGFTYLNWFRQRPGQSPRRLIYKVSNRDSGVPDRFSGSGSGTDFTLRISRVEAEDVGIYYCMQGTHWPYTFGQGTKLEIK
modifications: human IgG4 Fc
In test [1], B4 gave a ka of 2900 M/s and a kd of 0.00236 s⁻¹. Further, in test [2], the ka worked out at 1.14e+06 M/s and the kd stood at 0.00116 s⁻¹.

B5: H4H6330P: anti-big-ET-1 antibody, human IgG4 Fc; HCVR/LCVR SEQ ID NO: 210/218 (antibody, V domains shown)
VH: EVQLVESGGGLVQPGGSLRLSCAASGFTFSNYAMSWVRQAPGKGLEWVSAVSGSGVGTYYADSVKGRFTISRDNSKNTLYLQMKSLSAEDTALYYCTKTLGGTHAFDIWGQGTMVTVSS
VL: DIQMTQSPSTLSASVGDRVTITCRASQSISRWLAWYQQKPGKAPKLLIYKASSLESGVPSRFSGSGSGTEFTVTINSLQPDDFATYYCQQYNSYSSFGQGTKLEIK
modifications: human IgG4 Fc
In the case of B5, the results for the ka in test [1] and in test [2] were 1.5e+06 M/s and 1.42e+06 M/s, respectively. The kd in test [1] came to 0.072 s⁻¹; in test [2], 0.0324 s⁻¹.

B6: H4H6345P: anti-big-ET-1 antibody, human IgG4 Fc; HCVR/LCVR SEQ ID NO: 354/362 (antibody, V domains shown)
VH: EVQLVESGGGLVQPGGSLRLSCAASGFIFSSYAMTWVRQAPGKGLEWVSAISGSGVSTYYADSVKGRFTISRDNSKNTLYLQMNSLRIEDTAVYYCGKARTGTHAFDIWGQGTMVTVSS
VL: DIQMTQSPSTLSASVGDRVTITCRASQSISRWLAWYQQKPGKAPKLLIYKASSLETGVPSRFSGSGSGTEFTLTISSLQPDDFGTYYCQQYNSYSSFGPGTKVDIK
modifications: human IgG4 Fc
With B6, in test [1], the ka was 1.5e+06 M/s and the kd amounted to 0.0974 s⁻¹. In test [2], this molecule displayed a ka of 663000 M/s and a kd of 0.058 s⁻¹.

B7: H4H6323P: anti-big-ET-1 antibody, human IgG4 Fc; HCVR/LCVR SEQ ID NO: 146/154 (antibody, V domains shown)
VH: QITLKESGPPLVKPTQTLTLTCTFSGFSLNTNGMGVGWIRQPPGKALEWLTLIYWNDDKRYSPSLKTRLTITKDTSKNQVVLTMTNMDPVDTATYYCARFGSGTYWGQGTLVTVSS
VL: DIVMTQSPLSLPVTPGEPASISCRSSQSLLHSYGYNFLDWFLQKPGQSPQLLIYLGSHRASGVPDRFSGSGSGTDFTLKISRVEAEDVGVYYCMQALQTPLTFGGGTKVEIK
modifications: human IgG4 Fc
For the molecule B7, in test [1], the ka was determined as 580000 M/s and the kd was 0.0192 s⁻¹. In addition, in test [2], the ka amounted to 565000 M/s and the kd was 0.00569 s⁻¹.

B8: H4H6317P: anti-big-ET-1 antibody, human IgG4 Fc; HCVR/LCVR SEQ ID NO: 130/138 (antibody, V domains shown)
VH: QVQLVESGGGVVQPGRSLRLSCAASGFTFSSYGMHWVRQAPGKGLEWVAVLWYDGRNKYYADSVKGRFTISRDNSKNTLYLQMNSLRAEDTAVYYCARSYDAFDIWGQGTMVTVSS
VL: DIQMTQSPSTLSASVGDRVTITCRASQSISSWLAWFQQGPGRAPKLLIYKASTLQSGVPSRFSGSGSGTEFTLTISSLQPDDFATYYCQQYRSYSPTFGQGTKVEIK
modifications: human IgG4 Fc
On to B8, for which, in test [1], the “binding to mouse big-ET-1 (in words)” value is listed as “did not show any binding” and the Kd is above 1 µM. In test [2], the “binding to human big-ET-1 (in words)” value is recorded as “high affinity binding”, the ka amounted to 36700 M/s and the kd was found to be 0.000199 s⁻¹.
